Measured values reported in the supplement of paper PMC9112550, “Optimization of the antimicrobial peptide Bac7 by deep mutational scanning” (BMC Biology, 2022).

tested on: Escherichia coli TOP10; assay: shrunken log2 fold change of peptide-encoding DNA abundance (4.5 h post-induction vs induction); higher = less antimicrobial activity (less host growth inhibition); conditions: time post-induction: 4.5 h; library: site-saturation at positions 5, 18, 19, 20
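Note: peptides expressed intracellularly from a pBAD plasmid library in pooled LB shake-flask culture, induced with 0.3% L-arabinose, DNA abundance read by NGS, three biological replicates, DESeq2 with apeglm shrinkage.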

Sequence | shrunken log2 fold change
RRIRRRPPRLPRPRPRPVKVPRP | -0.1
RRIRYRPPRLPRPRPRPEQPPRP | 0.00487
RRIRVRPPRLPRPRPRPKAVPRP | 0.0112
RRIRHRPPRLPRPRPRPKFDPRP | -0.336
RRIRPRPPRLPRPRPRPMMAPRP | 0.0466
RRIRQRPPRLPRPRPRPKYFPRP | 0.0276
RRIRARPPRLPRPRPRPWDKPRP | 0.0886
RRIRCRPPRLPRPRPRPNWVPRP | -0.279
RRIRWRPPRLPRPRPRPVYCPRP | -0.196
RRIRFRPPRLPRPRPRPKKGPRP | 0.106
RRIRKRPPRLPRPRPRPIACPRP | 0.104
RRIRTRPPRLPRPRPRPCYMPRP | -0.156
RRIRFRPPRLPRPRPRPPQLPRP | 0.274
RRIRDRPPRLPRPRPRPAFSPRP | -0.0405
RRIRKRPPRLPRPRPRPLAGPRP | 0.286
RRIRLRPPRLPRPRPRPKQKPRP | 0.0979
RRIRNRPPRLPRPRPRPIPGPRP | -0.0332
RRIRGRPPRLPRPRPRPICFPRP | 0.535
RRIRKRPPRLPRPRPRPLQEPRP | 0.0634
RRIRQRPPRLPRPRPRPHHGPRP | -0.042
RRIRNRPPRLPRPRPRPCIWPRP | 0.131
RRIRSRPPRLPRPRPRPAKCPRP | 0.0862
RRIRKRPPRLPRPRPRPYTPPRP | -0.344
RRIRTRPPRLPRPRPRPEMIPRP | 0.0294
RRIRERPPRLPRPRPRPGLVPRP | -0.061

Sequence | shrunken log2 fold change
RRIRGRPPRLPRPRPRPFCQPRP | 0.0716
RRIRERPPRLPRPRPRPQKLPRP | -0.69
RRIRNRPPRLPRPRPRPRNMPRP | -0.171
RRIRSRPPRLPRPRPRPPVMPRP | 0.0439
RRIRARPPRLPRPRPRPANIPRP | -0.19
RRIRARPPRLPRPRPRPHDFPRP | 0.0354
RRIRPRPPRLPRPRPRPATHPRP | 0.0822
RRIRCRPPRLPRPRPRPIEKPRP | -0.0167
RRIRFRPPRLPRPRPRPYVAPRP | -0.62
RRIRFRPPRLPRPRPRPVWQPRP | 0.0042
RRIRTRPPRLPRPRPRPWMHPRP | 0.032
RRIRWRPPRLPRPRPRPQQTPRP | 0.103
RRIRFRPPRLPRPRPRPIVSPRP | 0.303
RRIRIRPPRLPRPRPRPWKVPRP | 0.0349
RRIRERPPRLPRPRPRPITQPRP | 0.0291
RRIRYRPPRLPRPRPRPLLLPRP | -0.586
RRIRERPPRLPRPRPRPQYEPRP | -0.624
RRIRYRPPRLPRPRPRPNHPPRP | -0.125
RRIRRRPPRLPRPRPRPDEDPRP | 0.219
RRIRVRPPRLPRPRPRPDCWPRP | 0.135
RRIRHRPPRLPRPRPRPDRWPRP | 0.255
RRIRVRPPRLPRPRPRPPQYPRP | -0.19
RRIRNRPPRLPRPRPRPITYPRP | -1.09
RRIRMRPPRLPRPRPRPKQMPRP | 1.25
RRIRVRPPRLPRPRPRPCSKPRP | -0.0775

Sequence | shrunken log2 fold change
RRIRNRPPRLPRPRPRPAGHPRP | 0.133
RRIRCRPPRLPRPRPRPQRMPRP | -0.0914
RRIRQRPPRLPRPRPRPYSHPRP | -0.0388
RRIRGRPPRLPRPRPRPVMHPRP | 0.575
RRIRMRPPRLPRPRPRPECEPRP | 0.206
RRIRNRPPRLPRPRPRPKQTPRP | 0.317
RRIRCRPPRLPRPRPRPHDMPRP | -0.234
RRIRHRPPRLPRPRPRPPRDPRP | 0.346
RRIRGRPPRLPRPRPRPAYIPRP | -0.156
RRIRMRPPRLPRPRPRPKWNPRP | 0.523
RRIRSRPPRLPRPRPRPVCLPRP | 0.0459
RRIRHRPPRLPRPRPRPVNAPRP | -0.0381
RRIRGRPPRLPRPRPRPFCNPRP | 0.243
RRIRKRPPRLPRPRPRPNKPPRP | -0.0304
RRIRERPPRLPRPRPRPRPSPRP | -0.093
RRIRCRPPRLPRPRPRPKVTPRP | -0.455
RRIRGRPPRLPRPRPRPFASPRP | 0.215
RRIRSRPPRLPRPRPRPTREPRP | 0.536
RRIRPRPPRLPRPRPRPRLDPRP | 0.0787
RRIRKRPPRLPRPRPRPWGKPRP | 0.0646
RRIRERPPRLPRPRPRPKPPPRP | 0.242
RRIRCRPPRLPRPRPRPHYVPRP | -0.78
RRIRARPPRLPRPRPRPFHIPRP | -0.906
RRIRNRPPRLPRPRPRPGGSPRP | 0.407
RRIRARPPRLPRPRPRPFGVPRP | 0.165

Sequence | shrunken log2 fold change
RRIRPRPPRLPRPRPRPSQLPRP | -0.0897
RRIRDRPPRLPRPRPRPSGIPRP | -0.0212
RRIRPRPPRLPRPRPRPLIMPRP | -0.131
RRIRMRPPRLPRPRPRPVTQPRP | 0.317
RRIRCRPPRLPRPRPRPYLMPRP | -0.916
RRIRFRPPRLPRPRPRPIMEPRP | -0.319
RRIRFRPPRLPRPRPRPPPMPRP | 1.17
RRIRHRPPRLPRPRPRPGQHPRP | -0.372
RRIRIRPPRLPRPRPRPFSRPRP | -0.0685
RRIRRRPPRLPRPRPRPPMQPRP | 0.385
RRIRKRPPRLPRPRPRPRMRPRP | 1.06
RRIRMRPPRLPRPRPRPMVKPRP | 0.0401
RRIRPRPPRLPRPRPRPCYRPRP | -0.154
RRIRSRPPRLPRPRPRPWPPPRP | 0.51
RRIRGRPPRLPRPRPRPGTMPRP | 0.0523
RRIRMRPPRLPRPRPRPKRRPRP | 1.02
RRIRFRPPRLPRPRPRPSFNPRP | -0.792
RRIRDRPPRLPRPRPRPRQEPRP | 0.0935
RRIRTRPPRLPRPRPRPSHGPRP | 0.0388
RRIRMRPPRLPRPRPRPKHDPRP | 0.43
RRIRLRPPRLPRPRPRPMSCPRP | 0.0448
RRIRERPPRLPRPRPRPTPAPRP | 0.239
RRIRGRPPRLPRPRPRPEYAPRP | 1.26
RRIRFRPPRLPRPRPRPWYWPRP | -0.34
RRIRTRPPRLPRPRPRPCLQPRP | -0.0598

Sequence | shrunken log2 fold change
RRIRERPPRLPRPRPRPLYFPRP | -0.764
RRIRIRPPRLPRPRPRPKCKPRP | -1.21
RRIRCRPPRLPRPRPRPSRIPRP | -0.562
RRIRDRPPRLPRPRPRPKIGPRP | -0.0266
RRIRWRPPRLPRPRPRPQPVPRP | 0.135
RRIRCRPPRLPRPRPRPVAFPRP | -0.169
RRIRTRPPRLPRPRPRPRFVPRP | -0.279
RRIRERPPRLPRPRPRPGRVPRP | 0.195
RRIRQRPPRLPRPRPRPTRKPRP | -0.0205
RRIRNRPPRLPRPRPRPWEFPRP | -0.00197
RRIRERPPRLPRPRPRPDNHPRP | -0.802
RRIRERPPRLPRPRPRPFNCPRP | 0.0173
RRIRYRPPRLPRPRPRPFKGPRP | 0.00253
RRIRGRPPRLPRPRPRPRDSPRP | 0.257
RRIRCRPPRLPRPRPRPIVVPRP | -0.34
RRIRCRPPRLPRPRPRPKMVPRP | -0.0546
RRIRWRPPRLPRPRPRPRFQPRP | 0.199
RRIRGRPPRLPRPRPRPWIHPRP | 0.0779
RRIRSRPPRLPRPRPRPFNPPRP | -0.28
RRIRDRPPRLPRPRPRPEWDPRP | 1.4
RRIRVRPPRLPRPRPRPVSEPRP | 0.155
RRIRWRPPRLPRPRPRPKSFPRP | 0.0955
RRIRHRPPRLPRPRPRPYKWPRP | -0.0842
RRIRARPPRLPRPRPRPKCNPRP | 0.0681
RRIRLRPPRLPRPRPRPKVPPRP | 0.0509
